In the RNAGym collection of RNA variant scans (doi:10.7554/elife.80360) one finds self-cleavage data, which are given here for 167 variants.

The labels stand for the following.
B1: Twister Ribozyme (parent)
chain: AACACUGCCAAUGCCGGUCCCAAGCCCGGAUAAAAGUGGAGGGGGCGG

In the data set the parent is B1. Kind of data set: self-cleavage, relative activity (ratio to wild type); higher = more cleavage; co-transcriptional.
Consider A34U G47U, for which the self-cleavage turned out to be 0.502.

Take A34U G47C: the self-cleavage was found to be 0.247.

With A35G G42C, the self-cleavage turned out to be 0.141.

As for A35G G42U, the self-cleavage was 0.133.

A35G G42A: the self-cleavage was 0.115.

On to A32U A33G, for which the self-cleavage amounted to 0.891.

With A35G G39U, the self-cleavage is 0.18.

On to A35G G39A, for which the self-cleavage was 0.374.

As for A34U G48C, the self-cleavage came out at 0.855.

As for U31C G45C, the self-cleavage is 0.593.

In the case of U31C G45U, the self-cleavage came out at 0.871.

Take A33C G44C: the self-cleavage came to 0.852.

In the case of A33C G44A, the self-cleavage was 0.832.

Turning to A32C C46U, the self-cleavage stood at 0.863.

Regarding A34G G48U, the self-cleavage was 0.876.

On to A35G C46A, for which the self-cleavage was 0.747.

On to A33G A35G, for which the self-cleavage was 0.865.

Consider A33G A35U, for which the self-cleavage is 0.789.

For the variant A32U G38C, the self-cleavage was found to be 1.12.

In the case of U31C A34U, the self-cleavage is 0.739.

As for U31C A34C, the self-cleavage stood at 0.196.

Regarding A32U G44C, the self-cleavage stood at 0.934.

A35C C46U: the self-cleavage was determined as 0.879.

As to A35C C46A, the self-cleavage is 0.98.

With A35C C46G, the self-cleavage worked out at 0.828.

On to A32G, for which the self-cleavage is 0.961.

On to A32U, for which the self-cleavage was determined as 0.975.

Take A32C: the self-cleavage was 0.967.

In the case of A32C G41A, the self-cleavage is 0.556.

Consider A32C G41C, for which the self-cleavage worked out at 0.326.

As to A32C G41U, the self-cleavage amounted to 0.603.

In the case of A33C G43U, the self-cleavage worked out at 0.297.

On to A33C G43C, for which the self-cleavage is 0.107.

For A32G A33C, the self-cleavage came to 0.833.

A32G A33U: the self-cleavage is 0.914.

For U31G G48C, the self-cleavage was found to be 1.19.

Take A33C G36A: the self-cleavage came to 0.175.

Take A34C G48C: the self-cleavage turned out to be 0.2.

On to A34C G48U, for which the self-cleavage was found to be 0.21.

Take A34G A35U: the self-cleavage came out at 0.92.

On to A34G A35G, for which the self-cleavage is 0.526.

For the variant A34G, the self-cleavage was 0.874.

For A34C, the self-cleavage came out at 0.378.

Turning to A34U, the self-cleavage stood at 0.915.

In the case of A34U G36A, the self-cleavage stood at 0.157.

On to U31C A40U, for which the self-cleavage was 0.149.

A34C A40G: the self-cleavage turned out to be 0.145.

On to A32C G48U, for which the self-cleavage was 0.893.

A32C G48C: the self-cleavage is 1.12.

Consider A32C G48A, for which the self-cleavage is 0.929.

In the case of A35C G48C, the self-cleavage was 1.08.

In the case of A35C G48A, the self-cleavage turned out to be 0.917.

As for A35C G48U, the self-cleavage was found to be 0.978.

On to A34C G42A, for which the self-cleavage was 0.143.

On to A34C G42U, for which the self-cleavage worked out at 0.113.

On to A34C G42C, for which the self-cleavage came to 0.184.

As to U31C U37G, the self-cleavage turned out to be 1.

Take U31C U37C: the self-cleavage turned out to be 0.587.

As to U31C U37A, the self-cleavage is 0.892.

With U31C G47U, the self-cleavage was 1.02.

Consider U31C G47C, for which the self-cleavage amounted to 0.745.

Regarding A33G G42A, the self-cleavage amounted to 0.215.

Consider U31G G43A, for which the self-cleavage stood at 0.324.

Regarding U31A G44A, the self-cleavage was determined as 0.689.

Consider U31A G44U, for which the self-cleavage came to 0.83.

As to A35C G47A, the self-cleavage amounted to 0.832.

Take A35C G47U: the self-cleavage worked out at 0.932.

Take U31G G36C: the self-cleavage was determined as 0.712.

Regarding U31G G36A, the self-cleavage turned out to be 0.662.

With A32G G43A, the self-cleavage is 0.284.

Regarding A32G G43U, the self-cleavage came to 0.439.

Regarding A32G A34G, the self-cleavage was determined as 0.679.

Take A32G A34U: the self-cleavage came to 0.85.

For the variant A33G G39C, the self-cleavage was 0.118.

Take A33G G39U: the self-cleavage turned out to be 0.222.

As to A33G G39A, the self-cleavage worked out at 0.362.

For the variant A32U U37A, the self-cleavage came out at 0.74.

Take A32U U37G: the self-cleavage came to 0.737.

As to A32U U37C, the self-cleavage stood at 0.669.

For the variant A32C G42C, the self-cleavage turned out to be 0.326.

On to A32C G42A, for which the self-cleavage came to 0.289.

For A33C G45A, the self-cleavage came out at 0.795.

In the case of A33C G45U, the self-cleavage was found to be 0.71.

For the variant A33C G45C, the self-cleavage came to 0.531.

With A35U G36C, the self-cleavage is 0.592.

In the case of A35U G36A, the self-cleavage was determined as 0.593.

For the variant A33C G39U, the self-cleavage worked out at 0.21.

In the case of A33C G39C, the self-cleavage was determined as 0.12.

In the case of A32U G41C, the self-cleavage amounted to 0.284.

A32U G41U: the self-cleavage amounted to 0.659.

A34C C46U: the self-cleavage was found to be 0.251.

On to A34C C46G, for which the self-cleavage came out at 0.154.

For the variant A35G G48U, the self-cleavage was 0.882.

Take A35G G48C: the self-cleavage came to 1.04.

For the variant A35G G48A, the self-cleavage is 0.913.

Take A32U G42U: the self-cleavage was found to be 0.298.

A33U U37A: the self-cleavage was 0.688.

As to A33U U37G, the self-cleavage worked out at 0.591.

As for A35G G38U, the self-cleavage was 0.667.

As to A35G G38A, the self-cleavage was found to be 0.199.

Regarding A33G A40U, the self-cleavage was 0.184.

Regarding A34G G44C, the self-cleavage was found to be 0.783.

Regarding A34G G44U, the self-cleavage is 0.722.

Regarding U31G G45A, the self-cleavage is 0.99.

Consider A32C A33C, for which the self-cleavage was found to be 0.767.

Take A32C A33U: the self-cleavage amounted to 0.865.

Consider A32U G39U, for which the self-cleavage was determined as 0.158.

Regarding A32U G39C, the self-cleavage came out at 0.144.

Turning to A32U G39A, the self-cleavage worked out at 0.596.

Regarding A35U G39A, the self-cleavage is 0.316.

Regarding A35U G39U, the self-cleavage is 0.134.

Turning to U31G A32U, the self-cleavage was 0.765.

For U31C A35U, the self-cleavage was determined as 1.06.

Regarding U31C G39U, the self-cleavage amounted to 0.19.

For the variant A33C A35G, the self-cleavage was 0.707.

Consider A33C A35U, for which the self-cleavage is 0.936.

Take A33C A35C: the self-cleavage amounted to 0.522.

On to A33C A40U, for which the self-cleavage was determined as 0.1.

Regarding A33C A40G, the self-cleavage is 0.182.

Regarding A33C A40C, the self-cleavage came out at 0.131.

In the case of A34G G36A, the self-cleavage came out at 0.164.

As for A34G G36U, the self-cleavage was 0.105.

For the variant A34U U37G, the self-cleavage was determined as 0.372.

With U31C G48C, the self-cleavage came to 1.2.

In the case of U31C G48A, the self-cleavage amounted to 0.901.

As to A33G G45C, the self-cleavage amounted to 0.545.

As to A33U G44C, the self-cleavage was 0.928.

As for A33U G44A, the self-cleavage came to 0.907.

As for A33U G47U, the self-cleavage is 0.81.

For A33U G47A, the self-cleavage was 0.739.

With U31C G41U, the self-cleavage is 0.764.

For A33G G43U, the self-cleavage stood at 0.238.

As to A35G G45C, the self-cleavage worked out at 0.373.

As for A35G A40U, the self-cleavage is 0.107.

On to A35G A40G, for which the self-cleavage stood at 0.118.

Take A35U G41A: the self-cleavage turned out to be 0.678.

Take A34C G43U: the self-cleavage turned out to be 0.14.

With A34C G43C, the self-cleavage turned out to be 0.103.

As to A34C G43A, the self-cleavage was 0.13.

For the variant A35C G44C, the self-cleavage was found to be 0.943.

Take A35G U37C: the self-cleavage was determined as 0.056.

For the variant A35G U37G, the self-cleavage came out at 0.585.

A32G G39C: the self-cleavage came to 0.155.

As to A32G G39U, the self-cleavage was 0.158.

Turning to A32G G39A, the self-cleavage came to 0.48.

As to A32C G43U, the self-cleavage turned out to be 0.344.

On to A33U G48A, for which the self-cleavage turned out to be 0.889.

For the variant A33U G48C, the self-cleavage was 1.08.

Consider A33U A34U, for which the self-cleavage stood at 0.847.

As for A33U A34C, the self-cleavage was 0.637.

For A34G G39U, the self-cleavage was found to be 0.102.

For the variant A34G G39C, the self-cleavage was found to be 0.109.

Take A34U G41C: the self-cleavage amounted to 0.176.

A34U G41A: the self-cleavage was found to be 0.163.

On to A34U G41U, for which the self-cleavage was found to be 0.185.

For U31G A33G, the self-cleavage is 1.02.

Consider U31G U37G, for which the self-cleavage amounted to 0.734.

Consider A32G A40C, for which the self-cleavage is 0.226.

With A32G A40U, the self-cleavage came to 0.117.

Consider A35C G39A, for which the self-cleavage turned out to be 0.221.

Turning to A35C G39C, the self-cleavage turned out to be 0.153.

Take A34G G42C: the self-cleavage is 0.185.

Consider A34G G42A, for which the self-cleavage stood at 0.133.

Consider A34C A35G, for which the self-cleavage stood at 0.212.

As for A34C A35U, the self-cleavage turned out to be 0.811.

In the case of A33U A40U, the self-cleavage turned out to be 0.157.

Regarding A33U A40C, the self-cleavage amounted to 0.234.
